The results in this text go back to article PMC6472409, “Dishevelled-3 conformation dynamics analyzed by FRET-based biosensors reveals a key role of casein kinase 1” (Nature Communications, 2019).

The target in experiment [1] is T1, PDZ domain of human DVL2 wild type (aa 265–361) (human, UniProt O14641 265-361).
T1 chain: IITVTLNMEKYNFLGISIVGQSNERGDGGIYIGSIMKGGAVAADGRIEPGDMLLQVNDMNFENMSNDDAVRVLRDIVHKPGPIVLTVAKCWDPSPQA
The experiment can be described thus: NMR.

The target in experiment [2] is T2, PDZ domain of human DVL2 (aa 265–361), phosphorylation-mimicking variant S286E + S329E (human, UniProt O14641 265-361, S286E | S329E).
T2 sequence: T1 chain with S22E, S65E
The experiment can be described thus: NMR.

Experiment [3] concerns the target T3, PDZ domain of human DVL2 wild type (aa 265–361) (human, UniProt O14641 265-361).
T3 construct: Dishevelled-2, human, PDZ domain aa 265-361; 15N-labeled (13C/15N for assignment) for NMR; S286 and S329 correspond to S268 and S311 of human DVL3; also called DVL2 PDZ wild type; PDZ wt; source: E. coli BL21 (DE3), purified (Ni-NTA, TEV cleavage, ion exchange, size exclusion); not shown: His6, N-terminal, cleaved; lipoyl domain, N-terminal, cleaved
T3 sequence (looked up): T1 chain
The experiment can be described thus: SPR; Biacore T200, PDZ immobilized on CM5 chip by amino coupling, peptide injected at increasing concentrations to steady state; one-site equilibrium fit, apparent KD. Particulars: both partners purified.

The target in experiment [4] is T4, PDZ domain of human DVL2 (aa 265–361), phosphorylation-mimicking variant S286E + S329E (human, UniProt O14641 265-361, S286E | S329E).
T4 construct: Dishevelled-2, human, PDZ domain aa 265-361 with S286E and S329E; 15N-labeled for NMR; also called S286E/S329E PDZ; PDZ phosphomimicking variant; source: E. coli BL21 (DE3), purified (Ni-NTA, TEV cleavage, ion exchange, size exclusion); not shown: His6, N-terminal, cleaved; lipoyl domain, N-terminal, cleaved
T4 sequence (looked up): T1 chain with S22E, S65E
Described as above. Particulars: both partners purified.

Experiment [5] deals with T4, PDZ domain of human DVL2 (aa 265–361), …. In words: NMR titration; 1H,15N HSQC series, 100 μM 15N-labeled PDZ with increasing amounts of peptide; 20 mM HEPES pH 6.8, 50 mM KCl; apparent KD from three fast-exchange cross-peaks. The note with it: both partners purified.

Positions count from the first letter of the chain named. [ ]: non-standard residue; d: D form. pS = N[C@@H](COP(=O)(O)O)C(=O)O

Usually Kd stands for the constant that tells how readily two partners part at equilibrium.

B1: phosphorylated (pS700) C-terminal peptide derived from DVL3 (aa 698–716) (peptide, UniProt Q92997 698-716, looked up)
peptide: H-RQ[pS]FRMAMGNPSEFFVDVM-OH
notes: Dishevelled-3, human, C-terminal aa 698-716; the last seven residues are printed as EFFVDIM; also called DVL C-terminal peptide; C-terminal DVL peptide (pS700); source: synthetic peptide, bought: KareBay Biochem
Take B1: the values for the Kd in experiment [1] and in experiment [2] were 296 µM and 625 µM, respectively. Moreover, the binding result in experiment [3] is recorded as “binds”. Besides, the “fold lower affinity than PDZ wt” value in experiment [4] was determined as 2 fold. Also, the “fold weaker affinity than PDZ wt” value in experiment [5] amounted to 2 fold.
